The sequences below were run on Escherichia coli TOP10 (assay: shrunken log2 fold change of peptide-encoding DNA abundance (4.5 h post-induction vs induction); higher = less antimicrobial activity (less host growth inhibition)). Settings: time post-induction: 4.5 h; library: site-saturation at positions 5, 18, 19, 20.
For RRIRWRPPRLPRPRPRPCEDPRP, the “shrunken log2 fold change” value was 0.115. RRIRKRPPRLPRPRPRPRYNPRP was tested, and the “shrunken log2 fold change” value was -0.312. For RRIRERPPRLPRPRPRPEYQPRP, the “shrunken log2 fold change” value was 0.00497. For RRIRMRPPRLPRPRPRPSFIPRP, the “shrunken log2 fold change” value was -0.668. In the case of RRIRARPPRLPRPRPRPCWFPRP, the “shrunken log2 fold change” value is reported as 0.107. RRIRARPPRLPRPRPRPKACPRP was tested, and the “shrunken log2 fold change” value was 0.19. In the case of RRIRKRPPRLPRPRPRPEPLPRP, the “shrunken log2 fold change” value is reported as 0.636. With RRIRIRPPRLPRPRPRPPCHPRP the “shrunken log2 fold change” value was -0.463. For RRIRKRPPRLPRPRPRPDRLPRP, the “shrunken log2 fold change” value was -0.038. In the case of RRIRVRPPRLPRPRPRPFCPPRP, the “shrunken log2 fold change” value is reported as -0.0571. In the case of RRIRDRPPRLPRPRPRPNRWPRP, the “shrunken log2 fold change” value is reported as 0.0049. RRIRERPPRLPRPRPRPIVHPRP was tested, and the “shrunken log2 fold change” value was -0.355. In the case of RRIRPRPPRLPRPRPRPHAIPRP, the “shrunken log2 fold change” value is reported as -0.217. In the case of RRIRLRPPRLPRPRPRPDMYPRP, the “shrunken log2 fold change” value is reported as -0.0404. For RRIRIRPPRLPRPRPRPVKKPRP, the “shrunken log2 fold change” value was -0.0235. For RRIRQRPPRLPRPRPRPEYTPRP, the “shrunken log2 fold change” value was -0.11. RRIRWRPPRLPRPRPRPLMEPRP was tested, and the “shrunken log2 fold change” value was 0.835. In the case of RRIRIRPPRLPRPRPRPSSNPRP, the “shrunken log2 fold change” value is reported as -0.313. For RRIRNRPPRLPRPRPRPWTQPRP, the “shrunken log2 fold change” value was -0.0178. For RRIRWRPPRLPRPRPRPWFRPRP, the “shrunken log2 fold change” value was -0.251. For RRIRTRPPRLPRPRPRPKSMPRP, the “shrunken log2 fold change” value was -0.62. For RRIRCRPPRLPRPRPRPMRHPRP, the “shrunken log2 fold change” value was -0.0878. In the case of RRIRCRPPRLPRPRPRPLHKPRP, the “shrunken log2 fold change” value is reported as -0.0345. With RRIRTRPPRLPRPRPRPSNIPRP the “shrunken log2 fold change” value was -0.329. RRIRQRPPRLPRPRPRPVEMPRP was tested, and the “shrunken log2 fold change” value was -0.101. For RRIRARPPRLPRPRPRPLKYPRP, the “shrunken log2 fold change” value was -0.11. With RRIRRRPPRLPRPRPRPLKRPRP the “shrunken log2 fold change” value was 0.161. RRIRSRPPRLPRPRPRPPVAPRP was tested, and the “shrunken log2 fold change” value was 0.403. RRIRRRPPRLPRPRPRPKCRPRP was tested, and the “shrunken log2 fold change” value was 0.453. RRIRMRPPRLPRPRPRPDIYPRP was tested, and the “shrunken log2 fold change” value was 0.0832. For RRIRDRPPRLPRPRPRPYIGPRP, the “shrunken log2 fold change” value was -0.0691. For RRIRIRPPRLPRPRPRPWPNPRP, the “shrunken log2 fold change” value was -0.0754. RRIRDRPPRLPRPRPRPNQVPRP was tested, and the “shrunken log2 fold change” value was -0.329. In the case of RRIRIRPPRLPRPRPRPQWAPRP, the “shrunken log2 fold change” value is reported as 0.0405. With RRIRLRPPRLPRPRPRPFNSPRP the “shrunken log2 fold change” value was -0.431. RRIRIRPPRLPRPRPRPCDCPRP was tested, and the “shrunken log2 fold change” value was -0.0657. RRIRTRPPRLPRPRPRPTDWPRP was tested, and the “shrunken log2 fold change” value was 0.218. RRIRFRPPRLPRPRPRPTEMPRP was tested, and the “shrunken log2 fold change” value was -0.105. In the case of RRIRHRPPRLPRPRPRPNLTPRP, the “shrunken log2 fold change” value is reported as -0.588. For RRIRCRPPRLPRPRPRPEQGPRP, the “shrunken log2 fold change” value was -0.205. For RRIRNRPPRLPRPRPRPFSCPRP, the “shrunken log2 fold change” value was -0.03. With RRIRWRPPRLPRPRPRPERMPRP the “shrunken log2 fold change” value was 0.0689. With RRIRARPPRLPRPRPRPDTEPRP the “shrunken log2 fold change” value was 0.00829. In the case of RRIRSRPPRLPRPRPRPCLVPRP, the “shrunken log2 fold change” value is reported as -0.379. With RRIRWRPPRLPRPRPRPESAPRP the “shrunken log2 fold change” value was 1.15. With RRIRVRPPRLPRPRPRPSYSPRP the “shrunken log2 fold change” value was -0.376. With RRIRWRPPRLPRPRPRPLKFPRP the “shrunken log2 fold change” value was -0.121. RRIRKRPPRLPRPRPRPVCPPRP was tested, and the “shrunken log2 fold change” value was 0.0175. For RRIRHRPPRLPRPRPRPIPNPRP, the “shrunken log2 fold change” value was 0.101. RRIRCRPPRLPRPRPRPWMKPRP was tested, and the “shrunken log2 fold change” value was -0.0192. RRIRHRPPRLPRPRPRPVEEPRP was tested, and the “shrunken log2 fold change” value was 0.00298. In the case of RRIRPRPPRLPRPRPRPGEKPRP, the “shrunken log2 fold change” value is reported as -0.0882. RRIRWRPPRLPRPRPRPRLCPRP was tested, and the “shrunken log2 fold change” value was 0.512. In the case of RRIRDRPPRLPRPRPRPNLPPRP, the “shrunken log2 fold change” value is reported as -0.0303. For RRIRNRPPRLPRPRPRPYNCPRP, the “shrunken log2 fold change” value was -0.385. In the case of RRIRVRPPRLPRPRPRPVLEPRP, the “shrunken log2 fold change” value is reported as -0.0482. In the case of RRIRARPPRLPRPRPRPDGNPRP, the “shrunken log2 fold change” value is reported as -0.0344. In the case of RRIRTRPPRLPRPRPRPSRDPRP, the “shrunken log2 fold change” value is reported as -0.139. RRIRFRPPRLPRPRPRPTGAPRP was tested, and the “shrunken log2 fold change” value was 0.257. In the case of RRIRWRPPRLPRPRPRPKDRPRP, the “shrunken log2 fold change” value is reported as 0.159. In the case of RRIRSRPPRLPRPRPRPGPHPRP, the “shrunken log2 fold change” value is reported as -0.109. With RRIRDRPPRLPRPRPRPGGAPRP the “shrunken log2 fold change” value was 0.806. RRIRERPPRLPRPRPRPKFKPRP was tested, and the “shrunken log2 fold change” value was -0.355. For RRIRFRPPRLPRPRPRPYIRPRP, the “shrunken log2 fold change” value was -0.755. For RRIRARPPRLPRPRPRPCGLPRP, the “shrunken log2 fold change” value was -0.0341. In the case of RRIRARPPRLPRPRPRPHMNPRP, the “shrunken log2 fold change” value is reported as -0.245. With RRIRERPPRLPRPRPRPNVKPRP the “shrunken log2 fold change” value was -0.195. RRIRPRPPRLPRPRPRPEDVPRP was tested, and the “shrunken log2 fold change” value was -0.0168. RRIRYRPPRLPRPRPRPFVRPRP was tested, and the “shrunken log2 fold change” value was 0.00599. With RRIRFRPPRLPRPRPRPPERPRP the “shrunken log2 fold change” value was 0.891. RRIRTRPPRLPRPRPRPQGSPRP was tested, and the “shrunken log2 fold change” value was -0.0161. For RRIRLRPPRLPRPRPRPVKVPRP, the “shrunken log2 fold change” value was -0.0103. RRIRRRPPRLPRPRPRPIMRPRP was tested, and the “shrunken log2 fold change” value was 0.277. With RRIRGRPPRLPRPRPRPFVPPRP the “shrunken log2 fold change” value was 0.0587. With RRIRKRPPRLPRPRPRPVAHPRP the “shrunken log2 fold change” value was 0.353.
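Note: peptides expressed intracellularly from a pBAD plasmid library in pooled LB shake-flask culture, induced with 0.3% L-arabinose, DNA abundance read by NGS, three biological replicates, DESeq2 with apeglm shrinkage.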
